Values of other authors in PMC3499705.
Read-outs that look alike come from different tables or passages of the source.

Assays:
[1] = target: VPAC1 receptor N-terminal ectodomain (Homo sapiens) (UniProt P32241); assay: intrinsic tryptophan fluorescence
[2] = target: VPAC1 receptor N-terminal ectodomain (Homo sapiens) (UniProt P32241)
VIP (Homo sapiens) = VIP (Homo sapiens) (UniProt P01282)
[3] = target: VIP6-28 6-28 (Homo sapiens) (UniProt P01282); assay: intrinsic tryptophan fluorescence
[4] = target: PACAP27 PACAP27 (Homo sapiens) (UniProt P18509); assay: intrinsic tryptophan fluorescence
Secretin (Homo sapiens) = Secretin (Homo sapiens) (UniProt P09683); assay: intrinsic tryptophan fluorescence
GRF (Homo sapiens) = GRF (Homo sapiens) (UniProt P01286); assay: intrinsic tryptophan fluorescence
PHM PHM (Homo sapiens) = PHM PHM (Homo sapiens) (UniProt P01282); assay: intrinsic tryptophan fluorescence
[5] = target: VIP2-28 2-28 (Homo sapiens) (UniProt P01282); assay: intrinsic tryptophan fluorescence
[6] = target: Helodermin (Heloderma suspectum) (UniProt P04204); assay: intrinsic tryptophan fluorescence

For secretin (from UniProt P09683), which Kd [1] is on record?
Its Kd is 16 µM.

With PACAP27 PACAP27 (from UniProt P18509) as the substance, how does the Kd [1] read?
The Kd was 0.57 µM.

For helodermin (from UniProt P04204), which Kd [1] is on record?
The Kd was 2.54 µM.

For VIP (from UniProt P01282), which Kd [2] is on record?
The Kd was 0.54 µM.

Which Kd (VIP (Homo sapiens)) does the source give for “VPAC1 receptor 31-144 (from UniProt P32241)” here?
The Kd was 0.54 µM.

And the Kd [3]?
The Kd was 0.85 µM.

What about the Kd [4] of the same substance?
The Kd was 0.57 µM.

What about the Kd (Secretin (Homo sapiens)) of the same substance?
The Kd was 16 µM.

And the Kd (GRF (Homo sapiens))?
Its Kd is 10.1 µM.

What about the Kd (PHM PHM (Homo sapiens)) of the same substance?
Its Kd is 8 µM.

What about the Kd [5] of the same substance?
Its Kd is 0.85 µM.

And the Kd [6]?
The Kd was 2.54 µM.

With PHM PHM (from UniProt P01282) as the substance, how does the Kd [1] read?
The Kd was 8 µM.

With GRF (from UniProt P01286) as the substance, how does the Kd [1] read?
Its Kd is 10.1 µM.

For VIP2-28 2-28 (from UniProt P01282), which Kd [1] is on record?
The Kd was 0.85 µM.
